Reference: paper doi:10.1101/2024.10.07.617049 (bioRxiv, 2024)

Columns and labels:
[1] = target: T1, selinexor-conjugated XPO1 (human, UniProt O14980 1-1071, Cys528 covalently conjugated to selinexor (KPT-330)); assay: cryo-EM structure
[2] = target: KPT-UTSW1-conjugated XPO1 (human, UniProt O14980 1-1071); assay: cryo-EM structure
KPT-127-conjugated XPO1 = KPT-127-conjugated XPO1 (human, UniProt O14980 1-1071, Cys528 covalently conjugated to KPT-127); assay: cryo-EM structure
KPT-185-conjugated XPO1 = KPT-185-conjugated XPO1 (human, UniProt O14980 1-1071, Cys528 covalently conjugated to KPT-185); assay: cryo-EM structure
Chain of KPT-185-conjugated XPO1 (O14980 whole entry): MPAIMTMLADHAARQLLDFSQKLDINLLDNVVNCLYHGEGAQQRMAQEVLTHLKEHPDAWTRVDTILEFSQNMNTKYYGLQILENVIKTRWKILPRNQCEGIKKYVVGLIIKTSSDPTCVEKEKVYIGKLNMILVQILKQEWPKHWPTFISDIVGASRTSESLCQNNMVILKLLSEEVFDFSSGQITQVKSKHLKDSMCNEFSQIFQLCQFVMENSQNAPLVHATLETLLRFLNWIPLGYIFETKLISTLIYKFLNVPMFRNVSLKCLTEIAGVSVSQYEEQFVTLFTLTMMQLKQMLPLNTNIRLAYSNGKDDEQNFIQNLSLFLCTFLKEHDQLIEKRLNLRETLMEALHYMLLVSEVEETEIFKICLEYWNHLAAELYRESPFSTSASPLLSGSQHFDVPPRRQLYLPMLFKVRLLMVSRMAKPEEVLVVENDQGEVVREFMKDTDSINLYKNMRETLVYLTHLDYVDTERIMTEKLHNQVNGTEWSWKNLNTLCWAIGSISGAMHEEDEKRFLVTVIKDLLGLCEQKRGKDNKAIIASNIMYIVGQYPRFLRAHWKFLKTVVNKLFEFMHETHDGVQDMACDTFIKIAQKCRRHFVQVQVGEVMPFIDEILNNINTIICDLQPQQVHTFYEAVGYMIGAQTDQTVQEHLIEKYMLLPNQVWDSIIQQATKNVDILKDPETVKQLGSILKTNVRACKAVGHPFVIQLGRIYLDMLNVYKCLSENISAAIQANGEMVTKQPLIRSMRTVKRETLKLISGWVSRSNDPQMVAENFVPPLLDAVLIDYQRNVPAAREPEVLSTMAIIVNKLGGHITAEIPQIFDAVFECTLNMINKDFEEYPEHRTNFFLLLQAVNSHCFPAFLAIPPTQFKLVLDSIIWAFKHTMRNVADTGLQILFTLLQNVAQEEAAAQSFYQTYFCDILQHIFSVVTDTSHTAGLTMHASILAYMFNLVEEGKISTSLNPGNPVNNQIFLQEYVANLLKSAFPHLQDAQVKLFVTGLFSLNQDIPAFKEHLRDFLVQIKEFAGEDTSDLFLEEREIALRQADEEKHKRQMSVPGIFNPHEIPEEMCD

[3] = target: T1, selinexor-conjugated XPO1; assay: ITC
[4] = target: exportin 1 (XPO1), unliganded (human, UniProt O14980 1-1071); assay: ITC
Chain of exportin 1 (XPO1), unliganded (O14980 whole entry): as above

T1 sequence (O14980 whole entry): as above
Chain of KPT-UTSW1-conjugated XPO1 (O14980 whole entry): as above
Chain of KPT-127-conjugated XPO1 (O14980 whole entry): as above

Binder	binding result [1]	Kd [3]	further results
ASB8^ΔN16 (domain or fragment) SLSERLIRTIAAIRSFPHDNVEDLIRGGADVNCTHGTLKPLHCACMVSDADCVELLLEKGAEVNALDGYNRTALHYAAEKDEACVEVLLEYGANPNALDGNRDTPLHWAAFKNNAECVRALLESGASVNALDYNNDTPLSWAAMKGNLESVSILLDYGAEVRVINLIGQTPISRLVALLVRGLGTEKEDSCFELLHRAVGHFELRKNGTMPREVARDPQLCEKLTVLCSAPGTLKTLARYAVRRSLGLQYLPDAVKGLPLPASLKEYLLLLE	binds	–	binding result [2]: binds; binding result (KPT-127-conjugated XPO1): binds; binding result (KPT-185-conjugated XPO1): binds
ASB8^ΔN16/R197A (domain or fragment) SLSERLIRTIAAIRSFPHDNVEDLIRGGADVNCTHGTLKPLHCACMVSDADCVELLLEKGAEVNALDGYNRTALHYAAEKDEACVEVLLEYGANPNALDGNRDTPLHWAAFKNNAECVRALLESGASVNALDYNNDTPLSWAAMKGNLESVSILLDYGAEVRVINLIGQTPISRLVALLVAGLGTEKEDSCFELLHRAVGHFELRKNGTMPREVARDPQLCEKLTVLCSAPGTLKTLARYAVRRSLGLQYLPDAVKGLPLPASLKEYLLLLE	binds	–	–
ASB8^ΔN16•ELOB/C (complex) chain 1: SLSERLIRTIAAIRSFPHDNVEDLIRGGADVNCTHGTLKPLHCACMVSDADCVELLLEKGAEVNALDGYNRTALHYAAEKDEACVEVLLEYGANPNALDGNRDTPLHWAAFKNNAECVRALLESGASVNALDYNNDTPLSWAAMKGNLESVSILLDYGAEVRVINLIGQTPISRLVALLVRGLGTEKEDSCFELLHRAVGHFELRKNGTMPREVARDPQLCEKLTVLCSAPGTLKTLARYAVRRSLGLQYLPDAVKGLPLPASLKEYLLLLE chain 2: […] chain 3: […]	–	29 nM	Kd [4]: 11000 nM
ASB8^ΔN16/R197A•ELOB/C (complex) chain 1: SLSERLIRTIAAIRSFPHDNVEDLIRGGADVNCTHGTLKPLHCACMVSDADCVELLLEKGAEVNALDGYNRTALHYAAEKDEACVEVLLEYGANPNALDGNRDTPLHWAAFKNNAECVRALLESGASVNALDYNNDTPLSWAAMKGNLESVSILLDYGAEVRVINLIGQTPISRLVALLVAGLGTEKEDSCFELLHRAVGHFELRKNGTMPREVARDPQLCEKLTVLCSAPGTLKTLARYAVRRSLGLQYLPDAVKGLPLPASLKEYLLLLE chain 2: […] chain 3: […]	–	58 nM	–
